T1: His-MIF (His-tag/T7 gene 10 leader/Xpress-MIF fusion) (UniProt P14174 P14174:1-115)
T1 chain: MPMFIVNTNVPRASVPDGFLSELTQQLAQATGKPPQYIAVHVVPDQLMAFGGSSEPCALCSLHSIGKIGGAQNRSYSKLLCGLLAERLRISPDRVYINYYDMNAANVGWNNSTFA

B1: #718 (ssRNA)
RNA: GGGACGCUCACGUACGCUCACUUCUUUCCCACUCACGUCUCGGUUUUAUUGGUCCAGUUUUCAGUGCCUGGACGUGCAGU
modifications: 3' A20 tail for capture
B2: X region SEQ 2343 (ssRNA)
RNA: GGGACGCUCACGUACGCUCACUGUGCUCGGAUUUCAUCCGGGUCCUAUACUUCUACUAUAUCAGUGCCUGGACGUGCAGU
modifications: 3' A20 tail for capture
B3: X region SEQ 2341 (ssRNA)
RNA: GGGACGCUCACGUACGCUCAUGUCCGCUGUUAAAGAUCGCGACUCUGGGCCCUGAUCGAUUCAGUGCCUGGACGUGCAGU
modifications: 3' A20 tail for capture
B4: X region SEQ 2346 (ssRNA)
RNA: GGGACGCUCACGUACGCUCAUGUUCCGGGCCGACUGGCUGUUAGAGAUCUCUGAUGUAGGUCAGUGCCUGGACGUGCAGU
modifications: 3' A20 tail for capture
B5: X region SEQ 2342 (ssRNA)
RNA: GGGACGCUCACGUACGCUCAUGACAUCUGAGGCUUUUUUCUUGGGGAAUUUUCCGAGACCUCAGUGCCUGGACGUGCAGU
modifications: 3' A20 tail for capture
B6: X region SEQ 2347 (ssRNA)
RNA: GGGACGCUCACGUACGCUCAUUUUUCCUCUUUGCCCUAUGUUUGGGCGACGCAUCCGGGUUCAGUGCCUGGACGUGCAGU
modifications: 3' A20 tail for capture
B7: X region SEQ 2339 (ssRNA)
RNA: GGGACGCUCACGUACGCUCAUGCUGAUCGUUCGGUGAAUCAUUUCCUUACCUACCUACGUUCAGUGCCUGGACGUGCAGU
modifications: 3' A20 tail for capture
B8: X region SEQ 2344 (ssRNA)
RNA: GGGACGCUCACGUACGCUCAGUCCAUUUUCGUCGUGUAAUUUCGGCAACGGUUCCGGGGAUCAGUGCCUGGACGUGCAGU
modifications: 3' A20 tail for capture
B9: X region SEQ 2340 (ssRNA)
RNA: GGGACGCUCACGUACGCUCAUGUAUUUCUGUUAGUGCUCGGUCCUGCUGAUCGGUUAGACUCAGUGCCUGGACGUGCAGU
modifications: 3' A20 tail for capture
B10: X region SEQ 2345 (ssRNA)
RNA: GGGACGCUCACGUACGCUCAUAUGUUCGACUUAAUUUGAUCUGCAUGUUUGUCUCCGGGCUCAGUGCCUGGACGUGCAGU
modifications: 3' A20 tail for capture
B11: #7004 (ssRNA)
RNA: GGGACGCUCACGUACGCUCAGGCGUUCUUCGCUGUAGUUCCGGUUUAUUGGUCUUUGUUUUCAGUGCCUGGACGUGCAGU
modifications: 3' A20 tail for capture
B12: #7015 (ssRNA)
RNA: GGGACGCUCACGUACGCUCAUGUCUCGGUUUAUUGGCGGUCGGACUUUUGCCCUGCGAUGUCAGUGCCUGGACGUGCAGU
modifications: 3' A20 tail for capture
B13: #7030 (ssRNA)
RNA: GGGACGCUCACGUACGCUCAAUGAGCUCACCUGGGUAAUUGGCGCCAAUUCAAGGGUCUGUCAGUGCCUGGACGUGCAGU
modifications: 3' A20 tail for capture
B14: #715 (ssRNA)
RNA: GGGACGCUCACGUACGCUCAUAGAGUGUAUUUGUACCAGGUAUACUGGCGCGAACGAAUGUCAGUGCCUGGACGUGCAGU
modifications: 3' A20 tail for capture
B15: #7029 (ssRNA)
RNA: GGGACGCUCACGUACGCUCACGAAAUCCAGGUUUGAUUGGCGUGGCACCCUUGCCAAGUGUCAGUGCCUGGACGUGCAGU
modifications: 3' A20 tail for capture
B16: #719 (ssRNA)
RNA: GGGACGCUCACGUACGCUCAGCUCUCUUACUUCCUGGGUGACUGGCUCUUUCGGGGUAUGUCAGUGCCUGGACGUGCAGU
modifications: 3' A20 tail for capture
B17: #7049 (ssRNA)
RNA: GGGACGCUCACGUACGCUCACGCUCAGGUGAAUUGGUUACGUUUUCUCUGACAAUGUGGAUCAGUGCCUGGACGUGCAGU
modifications: 3' A20 tail for capture
B18: #730 (ssRNA)
RNA: GGGACGCUCACGUACGCUCAUUCGACCGGGUUAUUGGCUGCUCUCCUCUGGUUUGUGAUGUCAGUGCCUGGACGUGCAGU
modifications: 3' A20 tail for capture
B19: #723 (ssRNA)
RNA: GGGACGCUCACGUACGCUCAGGUUAUUGGCGCCCUCGAACCAAAAUGGAUGCCGGGAAUGUCAGUGCCUGGACGUGCAGU
modifications: 3' A20 tail for capture
B20: #725 (ssRNA)
RNA: GGGACGCUCACGUACGCUCACAUGUCCGGGUGGAUUGGAUCGAUUACUUGUUUUCGUUUAUCAGUGCCUGGACGUGCAGU
modifications: 3' A20 tail for capture
B21: #7062 (ssRNA)
RNA: GGGACGCUCACGUACGCUCAUCUCGCCGCAUUUCCAGGUUUUUUGGCGCUUAUGAAUGAUCAGUGCCUGGACGUGCAGU
modifications: 3' A20 tail for capture
B22: #707 (ssRNA)
RNA: GGGACGCUCACGUACGCUCACGGUGGAUUGGCGACGAUGACCUUGAUAGUCCUCGUAAUGUCAGUGCCUGGACGUGCAGU
modifications: 3' A20 tail for capture
B23: #736 (ssRNA)
RNA: GGGACGCUCACGUACGCUCACCUCAAGUCGGGUCUAUUGUCUCCGGCGAAGCAUGGACUGUCAGUGCCUGGACGUGCAGU
modifications: 3' A20 tail for capture
B24: #7007 (ssRNA)
RNA: GGGACGCUCACGUACGCUCAGAGAUCGUUCUGGUUAUUGGCGCCUUCUGAUAAAGGAAUGUCAGUGCCUGGACGUGCAGU
modifications: 3' A20 tail for capture
B25: #748 (ssRNA)
RNA: GGGACGCUCACGUACGCUCAGCGCUUCUCGUUUGCUUUCCGGGUUCAUUGGUCCAUGUUUUCAGUGCCUGGACGUGCAGU
modifications: 3' A20 tail for capture
B26: #7034 (ssRNA)
RNA: GGGACGCUCACGUACGCUCAAAAUGCUGUUGCAGGUUAUUUGGCUCUCGGUCUGAGAAUGUCAGUGCCUGGACGUGCAGU
modifications: 3' A20 tail for capture
B27: #7054 (ssRNA)
RNA: GGGACGCUCACGUACGCUCAAAGUGUCUGCAAGUCUACCGGUUUAUUGGCCACUCCGUUUUCAGUGCCUGGACGUGCAGU
modifications: 3' A20 tail for capture
B28: #743 (ssRNA)
RNA: GGGACGCUCACGUACGCUCAACACUUGCUUUUUCUUGUCCGGGUUUAUUGGUCGUUGUAUUCAGUGCCUGGACGUGCAGU
modifications: 3' A20 tail for capture
B29: #745 (ssRNA)
RNA: GGGACGCUCACGUACGCUCAGAGCCACGGGUUUACUGGCGCUAAACAAAUGUUUAGGAUGUCAGUGCCUGGACGUGCAGU
modifications: 3' A20 tail for capture
B30: #7009 (ssRNA)
RNA: GGGACGCUCACGUACGCUCAUGAUUGAAUGGGCGAAUCGACCUUACCGGUUUUCUGCAACUCAGUGCCUGGACGUGCAGU
modifications: 3' A20 tail for capture
B31: #7008 (ssRNA)
RNA: GGGACGCUCACGUACGCUCAUUGUCUUGGUGUAUUGGUUACUGUCCAAUGGGCGGUGUAUUCAGUGCCUGGACGUGCAGU
modifications: 3' A20 tail for capture
B32: #7052 (ssRNA)
RNA: GGGACGCUCACGUACGCUCAAUUCUGUUCUGUCUCUCCGGGUUUACUGGCGCUAUGAAUGUCAGUGCCUGGACGUGCAGU
modifications: 3' A20 tail for capture

The values below come from patent publication US20120129720, “APTAMER THAT RECOGNIZES PEPTIDE” (KANAGAWA PREFECTURAL HOSPITAL ORGANIZATION, published 2012).

For one data set, the target named is T1, His-MIF (His-tag/T7 gene 10 …). The data set is described as follows: SPR; 600 nM His-MIF. Particulars: MIF 115 aa; ATGen. On the procedure:
A molecular interaction between each of the RNA aptamers and each of fusion proteins, i.e., a binding ability of each of the RNA aptamers to each of the fusion proteins was analyzed using surface plasmon resonance. The analysis of the binding ability was performed using BiacoreX (GE Healthcare UK Ltd.) according to the instruction thereof. Specifically, first, polyadenine having 20 bases was added to the 3′-end of the RNA aptamer. Thus, polyadenine-added RNA aptamer was prepared. This was then heated at 95° C. for 5 minutes and rapidly cooled on ice. Biotinylated polythymine having 20 bases obtained by biotinylating the 5′-end of polythymine had been bound to a streptavidin chip (Sensor chip SA, GE Healthcare UK Ltd.). The polyadenine-added RNA aptamer was introduced into a flow cell on the streptavidin chip using a running buffer. At this stage, the polyadenine-added RNA aptamer was immobilized on the chip via the biotinylated polythymine by complementary binding between poly A of the polyadenine-added RNA aptamer and the biotinylated polythymine. The polyadenine-added RNA aptamer was caused to bind to the biotinylated polythymine until a resonance unit (RU) (resonance unit; 1 RU=1 pg/mm²) reaches 700 RU. Subsequently, HBS (Hepes Buffered Saline) containing the fusion protein with a predetermined concentration was introduced into the chip using a running buffer, and a signal (RU) was measured. The composition of the running buffer includes 10 mmol/L HEPES (4-(2-hydroxyethyl)-1-piperazine ethanesulfonic acid), 150 mmol/L sodium chloride, 0.1 mmol/L magnesium acetate, and 0.01% Tween (registered trademark) 20 (pH 7.2). As a control, an introduction of the fusion protein and a measurement of a signal were performed in the same manner as described above using a chip to which biotinylated polythymine had been bound, on which no polyadenine-added RNA aptamer had been immobilized.
A binding ability of each of the RNA pools in the respective rounds to His-MIF was analyzed by surface plasmon resonance in the same manner as in “1. (4) Molecular interaction analysis” of Example 1. […] N40 (control RNA) also was analyzed in the same manner as mentioned above.
Molecule B1 came in with a binding signal of 0.75 His-MIF/RNA bonds.

The next data set shares this target. Briefly: SPR; data not shown. The following applies: MIF 115 aa; ATGen. For orientation: In SPR one partner is held on a chip, and binding of the other changes the refractive index at the surface.
Consider B2, for which the binding result is “binds”.

As to B3, the binding result is given as “binds”.

With B4, the binding result was “binds”.

Consider B5, for which the binding result is recorded as “binds”.

Take B6: the binding result is “binds”.

With B7, the binding result is given as “binds”.

Turning to B8, the binding result was “binds”.

Consider B9, for which the binding result is “binds”.

On to B10, for which the binding result is “binds”.

For a further data set the target is unchanged. The data set is described as follows: SPR; 600 nM His-MIF; data not shown. Particulars: MIF 115 aa; ATGen.
On to B11, for which the binding result is reported as “binds”.

With B12, the binding result was “binds”.

Turning to B13, the binding result is “binds”.

On to B14, for which the binding result is listed as “binds”.

With B15, the binding result is on record as “binds”.

On to B16, for which the binding result is “binds”.

In the case of B17, the binding result was “binds”.

For the molecule B18, the binding result is recorded as “binds”.

With B19, the binding result is reported as “binds”.

Regarding B20, the binding result was “binds”.

With B21, the binding result is on record as “binds”.

Take B22: the binding result is “binds”.

With B23, the binding result was “binds”.

On to B24, for which the binding result is recorded as “binds”.

Consider B25, for which the binding result was “binds”.

For B26, the binding result was “binds”.

On to B27, for which the binding result was “binds”.

With B28, the binding result is “binds”.

B29: the binding result is listed as “binds”.

Regarding B30, the binding result is on record as “binds”.

For B31, the binding result was “binds”.

Take B32: the binding result is given as “binds”.
